These results are taken from paper PMC3469465, “Muscle-Specific Splicing Factors ASD-2 and SUP-12 Cooperatively Switch Alternative Pre-mRNA Processing Patterns of the ADF/Cofilin Gene in Caenorhabditis elegans”.

The target in series [1] is T1, FLAG-SUP-12 (Caenorhabditis elegans, UniProt O45189 1-248).
T1 sequence: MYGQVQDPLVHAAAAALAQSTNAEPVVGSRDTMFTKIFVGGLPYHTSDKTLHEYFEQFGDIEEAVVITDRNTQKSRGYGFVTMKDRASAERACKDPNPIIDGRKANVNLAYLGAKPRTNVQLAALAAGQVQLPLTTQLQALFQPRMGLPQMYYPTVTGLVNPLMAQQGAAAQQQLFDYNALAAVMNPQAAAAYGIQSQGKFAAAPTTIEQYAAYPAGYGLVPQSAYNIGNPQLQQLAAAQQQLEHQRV
In words: EMSA; 20 mM HEPES-KOH pH 7.9, 150 mM KCl, 5% glycerol (EMSA only), 1% Triton X-100, 1 mM DTT, 0.1 mM PMSF, 100 ng/ul E. coli tRNA, 50 ng/ul BSA, 30 min, 20 C. The note with it: protein: recombinant; tags: FLAG; label: 32P (alpha-32P UTP, internal). A general note: In EMSA bound probe runs differently from free probe, usually more slowly.

Series [2] has as its target T1, FLAG-SUP-12. In words: EMSA; similar extent to WT; 20 mM HEPES-KOH pH 7.9, 150 mM KCl, 5% glycerol (EMSA only), 1% Triton X-100, 1 mM DTT, 0.1 mM PMSF, 100 ng/ul E. coli tRNA, 50 ng/ul BSA, 30 min, 20 C. The note with it: protein: recombinant; tags: FLAG; label: 32P (alpha-32P UTP, internal).

On to GGGAGACUAACCUAACCUAACCUAUGUGUGCCUGUUUUCUAG (ssRNA) [unc-60 intron 1A WT EMSA probe], for which the binding result with FLAG-SUP-12 [1] was “binds”.

Turning to GGGAGACAAACCAAACCAAACCUAUGUGUGCCUGUUUUCUAG (ssRNA) [unc-60 intron 1A M1 EMSA probe], the binding result with FLAG-SUP-12 [2] is listed as “binds”.
